# How the values were obtained:
# [1] = substrate: CN1CC=C(C2CCCN2C)CC1; experiment: Km value for Monoamine oxidase A was determined in human placental tissue
# [2] = substrate: CN1CC=C(C2CCCN2C)CC1; experiment: Km value for Monoamine oxidase B was determined in baboon liver tissue.; parameters: species or system Papio hamadryas
Protein,Km [1] [µM],Km [2] [µM]
Amine oxidase [flavin-containing] A (Homo sapiens) (protein) MENQEKASIAGHMFDVVVIGGGISGLSAAKLLTEYGVSVLVLEARDRVGGRTYTIRNEHVDYVDVGGAYVGPTQNRILRLSKELGIETYKVNVSERLVQYVKGKTYPFRGAFPPVWNPIAYLDYNNLWRTIDNMGKEIPTDAPWEAQHADKWDKMTMKELIDKICWTKTARRFAYLFVNINVTSEPHEVSALWFLWYVKQCGGTTRIFSVTNGGQERKFVGGSGQVSERIMDLLGDQVKLNHPVTHVDQSSDNIIIETLNHEHYECKYVINAIPPTLTAKIHFRPELPAERNQLIQRLPMGAVIKCMMYYKEAFWKKKDYCGCMIIEDEDAPISITLDDTKPDGSLPAIMGFILARKADRLAKLHKEIRKKKICELYAKVLGSQEALHPVHYEEKNWCEEQYSGGCYTAYFPPGIMTQYGRVIRQPVGRIFFAGTETATKWSGYMEGAVEAGERAAREVLNGLGKVTEKDIWVQEPESKDVPAVEITHTFWERNLPSVSGLLKIIGFSTSVTALGFVLYKYKLLPRS,52,–
Amine oxidase [flavin-containing] B (Homo sapiens) (protein) MSNKCDVVVVGGGISGMAAAKLLHDSGLNVVVLEARDRVGGRTYTLRNQKVKYVDLGGSYVGPTQNRILRLAKELGLETYKVNEVERLIHHVKGKSYPFRGPFPPVWNPITYLDHNNFWRTMDDMGREIPSDAPWKAPLAEEWDNMTMKELLDKLCWTESAKQLATLFVNLCVTAETHEVSALWFLWYVKQCGGTTRIISTTNGGQERKFVGGSGQVSERIMDLLGDRVKLERPVIYIDQTRENVLVETLNHEMYEAKYVISAIPPTLGMKIHFNPPLPMMRNQMITRVPLGSVIKCIVYYKEPFWRKKDYCGTMIIDGEEAPVAYTLDDTKPEGNYAAIMGFILAHKARKLARLTKEERLKKLCELYAKVLGSLEALEPVHYEEKNWCEEQYSGGCYTTYFPPGILTQYGRVLRQPVDRIYFAGTETATHWSGYMEGAVEAGERAAREILHAMGKIPEDEIWQSEPESVDVPAQPITTTFLERHLPSVPGLLRLIGLTTIFSATALGFLAHKRGLLVRV,–,60.9

# From ChEMBL document CHEMBL1136363, “Rational approaches towards reversible inhibition of type B monoamine oxidase. Design and evaluation of a novel 5H-Indeno[1,2-c]pyridazin-5-one derivative” (Bioorg Med Chem Lett, 2003)
